What was measured:
[1] = target: flotillin 2-MBP (Laodelphax striatellus); assay: MST; Monolith NT.115; flotillin 2-MBP labeled with NHS-495 held at 10 μM, NP-GST diluted from 17.5 μM to 0.0417 nM; 25°C
[2] = target: flotillin 2-MBP (Laodelphax striatellus); assay: BLI; Octet RED96e; biotinylated flotillin 2-MBP (5 μM) loaded on streptavidin biosensors; NP-GST 0 to 4,000 nM in 1× PBS; 25°C; buffer 20 mM NaH2PO4, 150 mM NaCl, 0.05% Tween 20

Substance: NP-GST (natural protein)
- Kd [1]: 791 nM
- Kd [2]: 619 nM
- koff [2]: 0.00382 s⁻¹
- kon [2]: 6170 M⁻¹ s⁻¹

From article PMC9006895
